Columns and labels:
Test in all cases: ELISA
[1] = biological target: SARS-CoV spike S1B domain (receptor binding domain) (SARS-CoV Urbani, UniProt P59594)
[2] = biological target: SARS-CoV-2 spike S1B domain (receptor binding domain) (SARS-CoV-2 Wuhan-Hu-1, UniProt P0DTC2)
[3] = biological target: WIV16 spike receptor binding domain (S1B domain) (SARS-like coronavirus WIV16, strain)

Measured: binding result

B1: human monoclonal antibody 47D11 (antibody, V domains shown)
VH: QVQLQESGPGLVKPSETLSLTCSVSGGSISSHYWSWIRQPPGKGLEWIGYIYYSGSTNHNPSLKSRVTISVDTSKNQFSLKLSSVTAADTAVYYCARGVLLWFGEPIFEIWGQGTMVTVSS
VL: EIVMTQSPATLSVSPGERATLSCRASQSVSSSLAWYQQKPGQAPRLLIYGASTRAPGIPARFSGSGSGTEFTLTISSLQSEDFAVYYCQQYNNWPLTFGGGTKVEI
binds: all assays above

— article doi:10.1101/2020.09.30.318261 (bioRxiv, 2020)
